Measurements from the supplement of paper PMC11246515.
± gives the standard deviation of the averaged measurements.

Assay: total protein half-life in vivo (active degradation + dilution); higher = more stable protein
[1] = E. coli NCM3722 delta-clpP delta-lon delta-hslV, growth: N-lim chemostat, doubling time 6 h
[2] = E. coli NCM3722 delta-clpP, growth: N-lim chemostat, doubling time 6 h
[3] = E. coli NCM3722 delta-hslV, growth: N-lim chemostat, doubling time 6 h
[4] = E. coli NCM3722 delta-lon, growth: N-lim chemostat, doubling time 6 h
[5] = E. coli NCM3722 delta-smpB, growth: N-lim chemostat, doubling time 6 h
[6] = wild type E. coli NCM3722, growth: C-lim chemostat, doubling time 6 h
[7] = wild type E. coli NCM3722, growth: C-lim chemostat, doubling time 12 h
[8] = wild type E. coli NCM3722, growth: N-lim chemostat, doubling time 6 h
[9] = wild type E. coli NCM3722, growth: N-lim chemostat, doubling time 12 h
[10] = wild type E. coli NCM3722, growth: P-lim chemostat, doubling time 6 h
[11] = wild type E. coli NCM3722, growth: P-lim chemostat, doubling time 12 h
[12] = wild type E. coli NCM3722, growth: C-lim chemostat, doubling time 3 h

Sequence	total protein half-life in vivo [1] [h]	total protein half-life in vivo [2] [h]	total protein half-life in vivo [3] [h]	total protein half-life in vivo [4] [h]	total protein half-life in vivo [5] [h]	total protein half-life in vivo [6] [h]	total protein half-life in vivo [7] [h]	total protein half-life in vivo [8] [h]	total protein half-life in vivo [9] [h]	total protein half-life in vivo [10] [h]	total protein half-life in vivo [11] [h]	total protein half-life in vivo [12] [h]
MKSMNIAASSELVSRLSSHRRVVALGDTDFTDVAAVVITAADSRSGILALLKRTGFHLPVFLYSEHAVELPAGVTAVINGNEQQWLELESAACQYEENLLPPFYDTLTQYVEMGNSTFACPGHQHGAFFKKHPAGRHFYDFFGENVFRADMCNADVKLGDLLIHEGSAKDAQKFAAKVFHADKTYFVLNGTSAANKVVTNALLTRGDLVLFDRNNHKSNHHGALIQAGATPVYLEASRNPFGFIGGIDAHCFNEEYLRQQIRDVAPEKADLPRPYRLAIIQLGTYDGTVYNARQVIDTVGHLCDYILFDSAWVGYEQFIPMMADSSPLLLELNENDPGIFVTQSVHKQQAGFSQTSQIHKKDNHIRGQARFCPHKRLNNAFMLHASTSPFYPLFAALDVNAKIHEGESGRRLWAECVEIGIEARKAILARCKLFRPFIPPVVDGKLWQDYPTSVLASDRRFFSFEPGAKWHGFEGYAADQYFVDPCKLLLTTPGIDAETGEYSDFGVPATILAHYLRENGIVPEKCDLNSILFLLTPAESHEKLAQLVAMLAQFEQHIEDDSPLVEVLPSVYNKYPVRYRDYTLRQLCQEMHDLYVSFDVKDLQKAMFRQQSFPSVVMNPQDAHSAYIRGDVELVRIRDAEGRIAAEGALPYPPGVLCVVPGEVWGGAVQRYFLALEEGVNLLPGFSPELQGVYSETDADGVKRLYGYVLK	4.97 ± 0.45	4.68 ± 0.86	4.28 ± 0.14	4.69 ± 0.36	4.34 ± 0.089	5.18 ± 0.13	8.46 ± 1.1	4.44 ± 0.13	8.46 ± 0.59	6.15 ± 0.14	12.3 ± 1.8	
MKLSTCCAALLLALASPAVLAAPGSCERIQSDISQRIINNGVPESSFTLSIVPNDQVDQPDSQVVGHCANDTHKILYTRTTSGNVSAPAQSSQDGAPAEPQ		6.13		6.79	4.61	6.33		5.52	11.6 ± 1.9	5.94 ± 0.1	> 16	3.25
MKKLVLSLSLVLAFSSATAAFAAIPQNIRIGTDPTYAPFESKNSQGELVGFDIDLAKELCKRINTQCTFVENPLDALIPSLKAKKIDAIMSSLSITEKRQQEIAFTDKLYAADSRLVVAKNSDIQPTVESLKGKRVGVLQGTTQETFGNEHWAPKGIEIVSYQGQDNIYSDLTAGRIDAAFQDEVAASEGFLKQPVGKDYKFGGPSVKDEKLFGVGTGMGLRKEDNELREALNKAFAEMRADGTYEKLAKKYFDFDVYGG [P0AEU0]		5.99 ± 0.12	6.1 ± 0.068	6.35 ± 0.24	5.88 ± 0.91	6.45 ± 1	13.1 ± 0.17	5.8 ± 0.59	13.9 ± 0.36	6.2 ± 0.54	14.3 ± 0.77	3.08 ± 0.17
MTQPVLDIQQLHLSFPGFNGDVHALNNVSLQINRGEIVGLVGESGSGKSVTAMLIMRLLPTGSYCVHRGQISLLGEDVLNAREKQLRQWRGARVAMIFQEPMTALNPTRRIGLQMMDVIRHHQPISRREARAKAIDLLEEMQIPDAVEVMSRYPFELSGGMRQRVMIALAFSCEPQLIIADEPTTALDVTVQLQVLRLLKHKARASGTAVLFISHDMAVVSQLCDSVYVMYAGSVIESGVTADVIHHPRHPYTIGLLQCAPEHGVPRQLLPAIPGTVPNLTHLPDGCAFRDRCYAAGAQCENVPALTACGDNNQRCACWYPQQEVISV	6.47 ± 1.1	3.49 ± 0.17	4.03 ± 0.098	2.24	4.53 ± 0.11	3.41 ± 0.54		4.02 ± 0.26	7.62 ± 0.58			2.28 ± 0.3
MDHLPMPKFGPLAGLRVVFSGIEIAGPFAGQMFAEWGAEVIWIENVAWADTIRVQPNYPQLSRRNLHALSLNIFKDEGREAFLKLMETTDIFIEASKGPAFARRGITDEVLWQHNPKLVIAHLSGFGQYGTEEYTNLPAYNTIAQAFSGYLIQNGDVDQPMPAFPYTADYFSGLTATTAALAALHKVRETGKGESIDIAMYEVMLRMGQYFMMDYFNGGEMCPRMSKGKDPYYAGCGLYKCADGYIVMELVGITQIEECFKDIGLAHLLGTPEIPEGTQLIHRIECPYGPLVEEKLDAWLATHTIAEVKERFAELNIACAKVLTVPELESNPQYVARESITQWQTMDGRTCKGPNIMPKFKNNPGQIWRGMPSHGMDTAAILKNIGYSENDIQELVSKGLAKVED	6.21 ± 0.21	4.41	4.77 ± 0.81	4.71	4.726 ± 0.00071		13		8.76	6.27		> 4
MRYIVALTGGIGSGKSTVANAFADLGINVIDADIIARQVVEPGAPALHAIADHFGANMIAADGTLQRRALRERIFANPEEKNWLNALLHPLIQQETQHQIQQATSPYVLWVVPLLVENSLYKKANRVLVVDVSPETQLKRTMQRDDVTREHVEQILAAQATREARLAVADDVIDNNGAPDAIASDVARLHAHYLQLASQFVSQEKP [P0A6I9]	4.61 ± 0.82	4.08 ± 0.2	4.04 ± 0.14	4.32 ± 0.1	4.78 ± 0.96	4.83 ± 0.92	9.87 ± 0.29	4.18 ± 0.04	6.95 ± 0.2	5.34 ± 0.12	11.1 ± 0.22	3.06 ± 0.28
MPSFDIVSEVDLQEARNAVDNASREVESRFDFRNVEASFELNDASKTIKVLSESDFQVNQLLDILRAKLLKRGIEGSSLDVPENIVHSGKTWFVEAKLKQGIESATQKKIVKMIKDSKLKVQAQIQGDEIRVTGKSRDDLQAVMAMVRGGDLGQPFQFKNFRD [P0A8E7]	6.17 ± 0.16	6.38 ± 1	5.06 ± 0.27	6.83 ± 0.4	5.85 ± 0.38	6.22 ± 1.1	10.7 ± 0.25	4.32 ± 0.57	8.82 ± 1	5.06 ± 1.4	12.7 ± 1.6	3.18 ± 0.28
